Results reported in the RNAGym collection of RNA variant scans (doi:10.1021/acssynbio.7b00057).

B1: Pistol ribozyme (parent)
chain: GGGUCGUUGUUCCAUAAUCGCGUGGAUAUGGCACGCAAGUUUCUACCGGGCACCGUAAAUGUCCGACUGGAGCCGUUCGGGCGGCUAUAAACAGACCUCAGGCCCGAAGCGUGGCGGCACCUGCCGCCGGUGGUAAAAAAGAUCGGAAGAGCACACGUCU

Variants of: B1
Test: aptazyme ON/OFF ratio, guanine; higher = stronger switching; co-transcriptional cleavage with and without guanine

First: U7G U8C U10C U11A C12G C13U
Second: U8C G9A U10G U11C C12U C13G
The “aptazyme ON/OFF ratio” value of the first is higher: 1.2 for the first, 1.15 for the second.

Compared with U7A U8G G9A U10A U11A C12A C13A, U7C U8C U10G U11C C12U is lower in “aptazyme ON/OFF ratio” value: 1.3 for the first, 1.22 for the second.

Going from U7G U8A G9A U10G U11G C12U C13U to U7C U8G G9U U10C C12U C13G, the “aptazyme ON/OFF ratio” value rises from 1.17 to 1.32.

First: U7G U10C U11G C12U C13G
Second: U8C G9A U10G U11G C12A
The “aptazyme ON/OFF ratio” value of the first is higher: 1.13 for the first, 1.12 for the second.

Going from U8A G9C U10A U11C C12A C13U to U7G U10C U11G C12G C13U, the “aptazyme ON/OFF ratio” value falls from 1.24 to 1.05.

Going from U7A U8C G9C U11A C12U C13G to U8G G9U U10A U11C C12G C13U, the “aptazyme ON/OFF ratio” value rises from 1.04 to 1.11.

Going from U7A U8C G9U U10A C13U to U7G U8C G9C U10G U11C C13U, the “aptazyme ON/OFF ratio” value rises from 1.15 to 1.34.

Going from G9A U10G C12U C13A to U7G U8C U11G C12U C13G, the “aptazyme ON/OFF ratio” value falls from 1.37 to 1.08.

Compared with U8A G9C U10G U11A C12U C13A, U8A G9U U10G C12U is higher in “aptazyme ON/OFF ratio” value: 1.12 for the first, 1.13 for the second.

First: U7A U8G G9U C12G C13A
Second: U7G U8C U11C C12G C13U
The “aptazyme ON/OFF ratio” value of the first is lower: 1.22 for the first, 1.46 for the second.

Compared with U7A G9C U10C U11G C12U, U7G U8G G9U U10C U11G C12U C13G is higher in “aptazyme ON/OFF ratio” value: 1.06 for the first, 1.24 for the second.

First: U7A U8G U11C C12A
Second: U7C U8G G9C U11G C12G C13A
The “aptazyme ON/OFF ratio” value of the first is higher: 1.24 for the first, 1.13 for the second.

Going from U7G G9A U10A C12A C13G to U8G U10C U11G C13A, the “aptazyme ON/OFF ratio” value falls from 1.14 to 1.07.

Going from U7G U8G G9U U10A to U7C G9C U11G C12A C13A, the “aptazyme ON/OFF ratio” value falls from 3.21 to 1.05.

First: U7G U8A G9U U10C U11C C12U C13G
Second: U7A C13G
The “aptazyme ON/OFF ratio” value of the first is lower: 1.06 for the first, 1.11 for the second.

Going from U7G U8C G9U U10G U11C C12A C13A to U7C G9A U10C C12A C13A, the “aptazyme ON/OFF ratio” value rises from 1.23 to 1.38.

Going from U8A G9A U10G U11C C12A C13A to U7A G9A U10C U11A C12U, the “aptazyme ON/OFF ratio” value rises from 1.12 to 1.31.

Going from U7A U8A G9A U10C U11C C12G C13A to U8C G9A U10G U11A C12G C13A, the “aptazyme ON/OFF ratio” value rises from 1.08 to 1.19.

First: U7C U8G G9A C12G C13U
Second: U7C U8G G9A U10G U11C C12G C13U
The “aptazyme ON/OFF ratio” value of the first is higher: 1.21 for the first, 1.19 for the second.

Compared with U7A U8G U11C C12G C13G, U8A G9U U10C U11A C12G C13U is lower in “aptazyme ON/OFF ratio” value: 1.17 for the first, 1.14 for the second.

Going from U7C U8C G9C U10C U11A C12A C13U to U7A U8A U10C U11C C12G C13U, the “aptazyme ON/OFF ratio” value falls from 1.1 to 1.08.

First: U7C U8C G9A U10G U11A C12G C13A
Second: U7G G9U U11A C12G C13A
The “aptazyme ON/OFF ratio” value of the first is higher: 1.19 for the first, 1.1 for the second.

First: U7A U8A U10G U11C C12U
Second: U7C U8G G9U U10C U11G C12U
The “aptazyme ON/OFF ratio” value of the first is lower: 1.1 for the first, 1.28 for the second.

First: U8G G9U U10C U11G C12G
Second: U7A U8G G9U U10G U11C C12U C13A
The “aptazyme ON/OFF ratio” value of the first is higher: 1.25 for the first, 1.1 for the second.

Going from U7A U8A G9A U10G U11A C12U C13A to U10G U11G C12A C13G, the “aptazyme ON/OFF ratio” value falls from 1.13 to 1.11.

Going from U7A U8G G9A U10A U11A C12G C13A to U10C U11A C13G, the “aptazyme ON/OFF ratio” value falls from 1.29 to 1.08.

First: U7C U8A U11A C12A
Second: U8A G9U U11C C12U
The “aptazyme ON/OFF ratio” value of the first is higher: 1.28 for the first, 1.13 for the second.

Going from U7A U8G U10C C12U C13A to U8C G9U U10G C12A C13U, the “aptazyme ON/OFF ratio” value rises from 1.55 to 1.57.

Compared with U7A U8A G9C U11A C12U C13U, U7G U8C G9C U11C is higher in “aptazyme ON/OFF ratio” value: 1.2 for the first, 1.87 for the second.

Compared with U7A U8A G9C U11C C12G C13G, U7C U8G G9A U10A C12G C13A is higher in “aptazyme ON/OFF ratio” value: 1.07 for the first, 1.11 for the second.

First: U8G U10A C12A C13U
Second: U7C U8A U10C
The “aptazyme ON/OFF ratio” value of the first is lower: 1.27 for the first, 1.76 for the second.

First: U7G U8C U10C U11G C12A C13G
Second: U8A G9A U10C C12A C13G
The “aptazyme ON/OFF ratio” value of the first is higher: 1.22 for the first, 1.13 for the second.

First: U7G U8A G9A U10G U11A C12U
Second: U7A U8A G9U U10C U11A C12G C13U
The “aptazyme ON/OFF ratio” value of the first is lower: 0.997 for the first, 1.16 for the second.

Going from U7A U10A U11C C12U to U7C U8A G9A U10A U11C C12A C13U, the “aptazyme ON/OFF ratio” value rises from 1.03 to 1.16.

Going from U7C U8G G9A U10A U11G C12U to U7G U8G U10C C12G C13U, the “aptazyme ON/OFF ratio” value falls from 1.38 to 1.33.

Going from U7G U8G G9C U10A U11C C13U to G9U U10A U11G C13U, the “aptazyme ON/OFF ratio” value rises from 1.07 to 1.72.

Going from U7A U8C G9C U10G U11C C12U C13G to U7A U10A U11C C12U C13A, the “aptazyme ON/OFF ratio” value falls from 1.16 to 1.07.

First: U7C U8G U11G C12A C13A
Second: U7G U8C G9C
The “aptazyme ON/OFF ratio” value of the first is lower: 1.1 for the first, 1.35 for the second.

First: U7G U8C G9A U10A U11G C12U
Second: U8C G9C U11C C12A C13U
The “aptazyme ON/OFF ratio” value of the first is higher: 1.26 for the first, 1.06 for the second.

Compared with U8A G9C U10G U11A C12G C13G, G9U U10G U11A C13G is lower in “aptazyme ON/OFF ratio” value: 1.52 for the first, 1.14 for the second.

U7A U8C G9A U11G and U7C U8G G9A C12A C13A are the same in “aptazyme ON/OFF ratio” value: 1.28 for the first, 1.28 for the second.

For G9C U11C C13U, the “aptazyme ON/OFF ratio” value was 1.04.
